Measurements published in paper PMC3229523, “Identification of Lactoferricin B Intracellular Targets Using an Escherichia coli Proteome Chip” (PLoS ONE, 2011).
Ends that are not written are not given here. * marks the point of attachment. Biotin = O=C1N[C@H]2[C@H](CS[C@H]2CCCCC(=O)*)N1

Key:
Experiment in all cases: peptide or protein array; E. coli proteome chip: purified His-tagged proteins printed in duplicate on Fullmoon slides, blocked with 1% BSA; 10 nM N-terminal biotinylated LfcinB with 1% BSA, room temperature, 1 h; detected with DyLight 649-labeled streptavidin, ratio to DyLight 549-labeled anti-His antibody; ProCAT normalisation, local cut-off; triplicate chips
Settings in all cases: both partners purified
YjeJ = biological target: T1, YjeJ (E. coli K-12, UniProt P39279 1-289)
T1 construct: YjeJ, E. coli K-12
T1 sequence (looked up): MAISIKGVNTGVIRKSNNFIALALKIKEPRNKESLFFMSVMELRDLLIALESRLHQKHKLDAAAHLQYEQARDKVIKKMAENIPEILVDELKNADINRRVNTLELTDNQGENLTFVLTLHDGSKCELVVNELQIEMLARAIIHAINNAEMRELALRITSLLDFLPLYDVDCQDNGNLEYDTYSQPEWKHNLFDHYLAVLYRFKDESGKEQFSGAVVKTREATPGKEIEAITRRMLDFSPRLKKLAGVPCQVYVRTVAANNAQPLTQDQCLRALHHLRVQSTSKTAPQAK

Sun = biological target: T2, Sun (E. coli K-12, UniProt P36929 1-429)
T2 construct: Sun, E. coli K-12
T2 sequence (looked up): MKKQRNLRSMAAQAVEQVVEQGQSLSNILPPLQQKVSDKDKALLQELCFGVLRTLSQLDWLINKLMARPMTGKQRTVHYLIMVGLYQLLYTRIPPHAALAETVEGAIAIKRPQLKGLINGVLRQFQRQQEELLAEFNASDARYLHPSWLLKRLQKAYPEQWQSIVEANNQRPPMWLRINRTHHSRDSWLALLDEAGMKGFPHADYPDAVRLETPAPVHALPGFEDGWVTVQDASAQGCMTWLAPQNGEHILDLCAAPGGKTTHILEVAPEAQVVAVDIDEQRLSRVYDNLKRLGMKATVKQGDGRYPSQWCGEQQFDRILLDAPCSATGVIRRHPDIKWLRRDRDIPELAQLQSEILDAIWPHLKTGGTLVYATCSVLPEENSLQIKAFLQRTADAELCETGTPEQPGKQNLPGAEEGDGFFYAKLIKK

AmiA = biological target: T3, AmiA (E. coli K-12, UniProt P36548 35-289)
T3 construct: AmiA, E. coli K-12
T3 sequence (looked up): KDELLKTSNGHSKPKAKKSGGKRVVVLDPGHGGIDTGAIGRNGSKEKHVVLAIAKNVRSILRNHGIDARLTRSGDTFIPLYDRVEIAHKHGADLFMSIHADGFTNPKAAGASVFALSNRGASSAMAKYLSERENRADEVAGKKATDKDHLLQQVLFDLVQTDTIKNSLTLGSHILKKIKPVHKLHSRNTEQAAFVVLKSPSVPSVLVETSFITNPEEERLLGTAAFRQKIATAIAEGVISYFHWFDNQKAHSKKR

YceC = biological target: T4, YceC (E. coli K-12, UniProt P0AA39 1-319)
T4 construct: YceC, E. coli K-12
T4 sequence (looked up): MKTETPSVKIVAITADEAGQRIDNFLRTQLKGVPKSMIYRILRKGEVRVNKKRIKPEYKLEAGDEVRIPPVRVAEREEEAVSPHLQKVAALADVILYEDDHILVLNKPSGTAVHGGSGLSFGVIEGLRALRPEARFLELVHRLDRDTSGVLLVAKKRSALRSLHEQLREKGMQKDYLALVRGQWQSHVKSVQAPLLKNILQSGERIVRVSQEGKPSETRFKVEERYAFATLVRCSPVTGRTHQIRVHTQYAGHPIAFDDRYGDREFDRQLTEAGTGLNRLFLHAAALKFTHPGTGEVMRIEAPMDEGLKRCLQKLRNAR

BasR = biological target: T5, BasR (E. coli K-12, UniProt P30843 1-222)
T5 construct: BasR, E. coli K-12
T5 sequence (looked up): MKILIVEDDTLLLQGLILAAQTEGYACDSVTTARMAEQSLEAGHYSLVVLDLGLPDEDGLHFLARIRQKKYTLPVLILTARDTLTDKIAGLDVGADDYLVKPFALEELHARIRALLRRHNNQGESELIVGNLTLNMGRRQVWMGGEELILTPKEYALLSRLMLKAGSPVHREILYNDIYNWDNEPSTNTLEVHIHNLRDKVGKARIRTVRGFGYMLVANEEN

Measured: binding result

B1: N-terminal biotinylated Lactoferricin B (peptide, UniProt P24627 36-60, looked up)
peptide: Biotin-FKCRRWQWRMKKLGAPSITCVRRAF
modifications: ends and bridges not checked
notes: lactoferricin B (LfcinB), cationic antimicrobial peptide of 25 amino acids; also called biotinylated LfcinB; biotin-labeled LfcinB; source: bought: Kelowna Inc
binds: all assays above
